# Laboratory results from the domain aggregation screens of Martell et al. (2025).
# Experiment: soluble fraction after stress (log2 fold change); higher = more stays soluble; pooled small domains, quantitative proteomics
# Conditions: stress: pH 4
# Procedure, shortened: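 After pH 4 stress, pooled custom libraries of small protein domains were quantified with high-throughput quantitative proteomics. Aggregation propensity is taken from the fold change in each domain's soluble amount following the acid stress. The scale is log2, where higher values mean more stayed soluble.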
row,Sequence,soluble fraction (log2)
1,HMTLDDSIALGRSLLDKGLMDFGTNLANLAEDKLRDFLSQQRYENLDDLFADIARGNRLPMFTAQQLLS,-0.481
2,HMEEPLIISIDSNGAVYLEVDSFKDQSIEMSSLREIIEKIILANPDIQVVVRGDSEVKYEKVMDLMSILQS,-1.95
3,HMKEDNPIVLINLQAKEGEWVFKGTGLPYVGKYHQHKNGEYMIGIGVLNLNHELKPDEIIIPNPNK,0.0576
4,HMIAKIEGQISYVGNRFLIVDVSGVGYKLFVTNEAISLSKVEESIKLWVHTAVRENSIDLYG,0.22
5,HMISIKEAVFPFSRFPGVDTLLGPEMKSTGEVMGLADNFGHAYAKSQIASGSKLPESGTLFVSVKNSD,0.0851
6,HMTLAEEFNNLNGKVITRETLESLLVKAEKEQNSTISNRIRKVLQAYTADTFLIELQHTESA,-0.0269
7,HMEKNKERIAFLKKRLEMYYEAEEKILQGQSYTIGSRTLTRTSLANVQSKIKELESEISALETRGN,-0.653
8,HMKVMTNAELGRIIKEARIARRMTQSEVVGDFITRNMLSQIENGNAAPSMRTLQYLMDVLDIHINIE,-0.751
9,HMQMPLTMATMGEVNKIVKVGGNEETRRFLANLGFVAGAEVVVLSKIGGNVIVNVKDSRVAVNEDMARHIM,-0.692
10,HMTILKEGMSGPEVERLQDALKRHGFDPGRVDGQFGPGTEAAILAFQKSEGLRADGVAGPKTQQALGLE,0.155
11,HMDTNRIIGNKIYQLRRSINMTQQELAEKVGISVTFLSEIENGRKSMSVDTLIKLSKGLQVSLDTIVF,-0.831
12,HMGEPVEIEEPITVRSLSEALGLKSSAIISHLMRQGVFATINQNLDKETAELIAAEYGIELRIK,-0.0783
13,HMDFYPARVKWFNKSKGFGFANIFKSNDDIFLHIETLKRSGLSDLETGEAIVLTVTEGPRGKMADTILTWD,-0.411
14,HMEKRIIMLEELKKQVYEANMELPRRGLITYTWGNVSGIDRESGNFVIKPSGVDYDKLKPEDMVVMDL,0.0555
15,HMTTLEGIEKYLGSGMIRGIGPAYAGRLTKVFGEAVFDVIEQSPERLREVEGIGPKRVSRIVSGWAEQ,-0.707
16,HMSRSKLNRLDKIKKMLIAQTGISIKEFSASLNVSEITIRRDLNLLEEQGFIRLVNGVAIYRM,-0.315
17,HMGLSENALAMLKQQETVLIRLIDGRGNQGALASINLIVSRILNLDIVDRTPEDLLRVIASEGEQND,-1.54
18,HMNPTTDFFKLEGIDATRILVFDQVGRQVAQFSQPAQQMDIQALPAGVYALRIENADGQVYSARIVK,-0.773
19,HMYTVQPHESLWSIAASQLGDGHRFTEIVDLNQELLGGKANFIKPGWVLQIP,-0.911
20,HMLVNNSTIETVIDFANVKFGMELTKDQVSEQLRNLSFSQTLKLINSMKADDNDAFSEIIDL,-1.89
21,HMDTYKGFIFEVVDKYFSPTLNQKIGQAKNKQGIVLLQTKPSFTQDPKVLIEELKLIIDRDNLKA,-0.362
22,HMSNAIDDAVEKVISENLDLAKERGLQSMGPLMGLVMKELGGTADGKAVSEALRRKISEISD,0.114
23,HMRPTVNETQIREVFRSILGREVDPEGLRHYLGQAAKGWSIDQIRADVNNSQEAHQRRAELARQAEELK,-0.217
24,HMEQLNKNIKFDNFLESLNFINKVSEVAEEENHHPDLKFGWGYADITIFTHAIKGLSEGDFVLAAKIDVI,-0.295
25,HMKRDYELPAFIETYLKKNHVAIDTKSAAMIAEHIGADLSRLISELDKVMISLPDDDRRVTPDVVEREI,-0.436
26,HMQGENDVTIDPKKLTIGDLAKEISKIEDSEELNNILVAEKEGKGRKGAINAITERIENVSGGTG,0.22
27,HMQEQIVQGIVKYFDAEKQFGFIAGDDGVDRFFNAKSIQGNAVKTGDRVRFLAISHIRGPRALKISA,-0.566
28,HMIRDVDYNTFVSMVQEGKVGQVEIQEQNNRILFTDKDERTVYKTAMVPDSDLISRLLEAGVSTS,-0.737

row,Sequence,soluble fraction (log2)
1,HMRSLAVGNVVSEEGKPSYLLLDSKRTMLFSENSIPSLYLEDGRRVIVNYTLLDEDYQGYDFRIHVNDIDT,0.22
2,HMDDEELDALKGIPANEYTQEQIKQISEVFHTLQKNEVKDWLNSLQLRNIELPFELRNEVFSQ,-0.43
3,HMDYDDLVPLDARGRLRLDGQDIILAFGRHRGRSIEEVHNHDKSYFDWLVSPAGGLEDEVIATLRERF,-1.4
4,HMLSLGQQIRNHVLSRIESGEWPEGSRIPSEAKLVELLGASRMTIHIALRDLSAEGVLLRKQGAGTFVAPR,-0.553
5,HMKKALTAEQEARVRELYFRGINYYSANRYQDAIAEWRKVLAIDPNHEKAKNNIRQTLILLK,-0.123
6,HMDPDAIVSKGQLGALNNAIGRFIAQGGSQTVVDKGIAKRNPNAKKPADLTNSQAESLEAAILKILNG,0.121
7,HMYYNDEELDGYRGTPSDAYSDNAVEEFREVLYTLREDEVSGWVRSLQLRGIFLPDAIKDETFLI,-1.84
8,HMAATHYEGIKQDGETDDAVIERVLTGLSVTANKDDIFIVKTLIAGTKYSYTAYVYNGNAWAAM,-0.255
9,HMQVEEKNKKIELYIEGKIKELESNLMYVPNENKKKLLMAFMNRNEDIEIIKTKIDTIFNKSVAAYKENM,-0.894
10,HMLSADLLDKIQRIDSLEQQGKYAQAEKEARALLSDPSITPSERASVQNILSSIARKKAAQAQ,0.0475
11,HMITTWAGKATTDVYGRVDANPKADAVLVIKTGWTVQVVGSKTAPDGGTWYKLIYNGKTMYANSKFIVK,0.00106
12,HMSDKEDIDKYLLTYGDLLFNRTNSSEWVGKTAIYRGEVSAIYAGYLIRIRSFLDAEYLNSVMNSKYA,-0.485
13,HMDTGPSFATRRQEAFNALTQIAASNKEFMNVAGDVLWKVADFPEAQILAQRWRRIIPPNVLGEA,-0.438
14,HMQVTIGADLAEHAARLDVQISDVVKLIKSGVSEGEIKVGLTKLETRLAHPELALVENKLAYLKALIAES,-0.79
15,HMANNPISMIKIRQILRLHIQGRSKLQIAAQTGISRNTLKKYLKEFEASKLTYDEISELSDKDLEDLFIK,0.225
16,HMGPDALSIGRRVRQVRTARGMTLDELAAAVSRAPSQLSMIETGKREPKLSLLQAIARALGTTIDALLT,0.126
17,HMTPVYLNARQKQILAFLKREEPAKVGDIAHALKTISINTLKKDLLYLRQKNLIESHGVLKGTIYTVK,0.209
18,HMEGSRASMDGQVPGKTSYLEWLARQPAQRQDQVLGAERGRLFRAGEIDLADMFTDKGEWISLERLKQLS,-0.284
19,HMVQVDNELTEFSVQSITRGIDALGEVTIRVTAPDGGVYTGRGADNDIIVSSTKAYLNALNRLLNDK,-0.552
20,HMNPFPDNTAEVLSQFKNIIVPELNTGQLSKLLRARYLVDTVGINKVEGLPFTAQELEEKIESLINSF,-0.705
21,HMEELNFYPNPAYKYINLDYVGLKEIYTVLGKKLLETYDTRINISNLNSGIYLIKFKNQALRFVK,-0.32
22,HMDHTYKHIELTGSSEKGIEEAVQNALAKASESVQNMRWLEVTDTRGHIEDGRVAHWQVTVKVGFTL,0.22
23,HMLSAGTTEQRLAMLQYQWEKQSETYSALGPNNGVVTLGQIRNTMAKIAELAGFKDAAQFWMPVPMDYDV,-0.491
24,HMKEILLITGKGLHSGQDDVYKSAQLSKLRYSVPEFIKSNLEISQLILSVETPLQKDGGDGALLIK,-0.192
25,HMTIRLKELRKQKGNTQAEVAKILGTNQSQYGKYENERTQLSLDNAKILSDYFGVSVPYLLGLDDNP,-0.486
26,HMSPDALSNLPIGSEIKFTLWDGTEKRLVKHPAAYQFSRPFWMNLNEYTYVPVNRIPKNYEVIRL,-0.0954
27,HMSVVKPIYIGMMTSEVEAIMGKPFEVITNNNSKNNQLWIYKYQDKRSVMLTFTNYKLIKIE,-0.0356
